These results are taken from paper PMC11098083.

In this data set the target is GST-Pol32 (Saccharomyces cerevisiae (budding …, UniProt P47110 1-350)). The data set is described as follows: EMSA.
Chain of GST-Pol32 (Saccharomyces cerevisiae (P47110 whole entry): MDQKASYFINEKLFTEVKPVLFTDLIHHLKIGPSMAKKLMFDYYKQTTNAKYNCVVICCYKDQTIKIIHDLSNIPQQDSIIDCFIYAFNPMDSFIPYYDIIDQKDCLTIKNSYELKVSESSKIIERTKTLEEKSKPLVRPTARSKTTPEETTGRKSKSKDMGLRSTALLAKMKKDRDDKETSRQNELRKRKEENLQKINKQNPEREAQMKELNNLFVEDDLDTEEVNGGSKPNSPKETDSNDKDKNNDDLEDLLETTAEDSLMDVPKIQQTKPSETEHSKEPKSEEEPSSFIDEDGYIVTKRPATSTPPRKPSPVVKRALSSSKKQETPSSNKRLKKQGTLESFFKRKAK

B1: 58bp DNA (dsDNA)
DNA 1: ATACATTTTATGACTGGAAACTTTTTTGTACAACACTCCAATAAACATTTTGATTTTA
DNA 2: TAAAATCAAAATGTTTATTGGAGTGTTGTACAAAAAAGTTTCCAGTCATAAAATGTAT
Turning to B1, the binding result is recorded as “binds”.
